The test has as its target T1, CD20 peptide on HLA-A*02:01 (human).
T1 peptide: SLFLGILSV
Briefly: multimer staining.

B1: TCR 79B2 (TCR, V domains shown)
Valpha: GEQVEQLPSILRVQEGSSASINCSYEDSASNYFPWYKQEPGENPKLIIDIRSNMERKQIQELIVLLDKKAKRFSLHITDTQPGDSAMYFCAASANTGANTGKLTFGHGTILRVHP
Vbeta: ETAVFQTPNYHVTQVGNEVSFNCKQTLGHDTMYWYKQDSKKLLKIMFSYNNKQLIVNETVPRRFSPQSSDKAHLNLRIKSVEPEDSAVYLCASSWGLGSYEQYFGPGTRLTVL
Consider B1, for which the binding result was “recognises”.
